Molecular target: SARS-CoV-2 main protease (Mpro) H172Y (SARS-CoV-2)

Substance “Dabcyl-KTSAVLQ↓SGFRKM-E(Edans)-NH2 FRET substrate (peptide)” has a Michaelis constant Km, FRET-based cleavage assay (400 nM enzyme, substrate 10 to 320 μM, 20 mM HEPES, 120 mM NaCl, pH 7.0) of 803 μM.

— doi:10.1101/2022.07.31.502215
